Like-named read-outs stand apart in the source and are kept apart here.
Tests used:
[1] = tested on: recombinant ASMT allozymes; experiment: Substrate kinetic studies, apparent Km of recombinant ASMT allozymes; assay type: biochemical, human
Description: Estimating Apparent Km Values: To estimate apparent Km values of ASMT for the sodium arsenite and SAM, a series of sodium arsenite and SAM concentrations were tested with the recombinant allozymes. Blanks for each substrate concentration were included by assaying COS-1 cell cytosol after transfection with empty p91023(b) vector. […] Apparent Km values were calculated using the method of Wilkinson with a computer program written by Cleland. Wilkinson supra; and Cleland supra.
Alterations in amino acid sequence can alter enzyme substrate affinity and/or catalytic efficiency. […] A series of sodium arsenite and SAM concentrations were used to estimate apparent Km values for recombinant wild type ASMT and for the three variant allozymes.

[2] = tested on: recombinant ASMT allozymes; experiment: ASMT enzyme activity of recombinant allozymes (methylation of sodium arsenite with 14C-SAM); assay type: biochemical, human; settings: COS-1 cell homogenate, 2.5 mM sodium arsenite, 10 μM 14C-SAM, corrected for transfection efficiency, mean ± SEM
Excerpt: Recombinant ASMT Expression Constructs and Allozyme Expression: ASMT cDNA sequences for the three non-synonymous cSNPs observed during the resequencing experiments were created using the QuickChange Site-Directed Mutagenesis kit (Stratagene, La Jolla, Calif.), with the wild type ASMT cDNA open reading frame (ORF) in the pUni/V5-His-TOPO (pUni) vector (Invitrogen) as template. Specifically, the full-length wild type ORF was amplified using human brain Marathon-Ready cDNA (Clontech) as template. The resultant ASMT cDNA was subcloned into pUni, a vector that is only 2.3 kilobases in length and thus is well suited for performing “circular PCR” during site-directed mutagenesis. Site-directed mutagenesis was performed using internal primers that contained the variant nucleotide sequences. […]
ASMT Enzyme Activity: ASMT activity was measured using the methods of Zakharayan et al. (Chem. Res. Toxicol. 8(8):1029-1038 (1995)). […] The protein concentration of each recombinant protein preparation was determined by the dye-binding method of Bradford (Anal. Biochem. 72:248-254 (1976)) with bovine serum albumin as a standard. “Blank” samples included the same quantity of COS-1 15,000 x g supernatant from cells that were transfected with “empty” p91023(b) expression vector to correct for endogenous activity. […]

B1: WT: recombinant wild type (reference) human ASMT polypeptide, SEQ ID NO:5, expressed in COS-1 cells (protein, listed as Homo Sapiens)
chain: MAALRDAEIQKDVQTYYGQVLKRSADLQTNGCVTTARPVPKHIREALQNVHEEVALRYYGCGLVIPEHLENCWILDLGSGSGRDCYVLSQLVGEKGHVTGIDMTKGQVEVAEKYLDYHMEKYGFQASNVTFIHGYIEKLGEAGIKNESHDIVVSNCVINLVPDKQQVLQEAYRVLKHGGELYFSDVYTSLELPEEIRTHKVLWGECLGGALYWKELAVLAQKIGFCPPRLVTANLITIQNKELERVIGDCRFVSATFRLFKHSKTGPTKRCQVIYNGGITGHEKELMFDANFTFKEGEIVEVDEETAAILKNSRFAQDFLIRPIGEKLPTSGGCSALELKDIITDPFKLAEESDSMKSRCVPDAAGGCCGTKKSC
B1 was tested, and the Km ([1]; substrate SAM, read-out: SAM Km) was 12 ± 6.9 µM, the Km ([1]; substrate sodium arsenite, read-out: Sodium Arsenite Km) was 4.6 µM and the “Enzyme Activity (% WT)” value [2] was 100 % WT.

Reference: US7250290B1, “Arsenic methyltransferase sequence variants” (priority 2003, dated 2007)
